Laboratory results reported in patent publication US20150344570A1 (published 2015).

T1: FcγRIIb extracellular domain with C-terminal His tag (human, UniProt P31994 43-217)
T1 construct: extracellular domain; also called FcgRIIb; 2b; not shown: His tag at the C terminus
T1 sequence (looked up): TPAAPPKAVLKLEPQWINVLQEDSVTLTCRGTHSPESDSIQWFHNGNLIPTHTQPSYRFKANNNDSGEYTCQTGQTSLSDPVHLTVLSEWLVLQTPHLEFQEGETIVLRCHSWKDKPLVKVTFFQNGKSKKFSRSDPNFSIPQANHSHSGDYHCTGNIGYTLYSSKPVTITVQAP


Experiments:
[1] = target: T2, FcγRIIIa extracellular domain with C-terminal His tag (human, UniProt P08637 17-208); test: SPR (Biacore); He/Con_3a divided by He/Con_2b (FcγRIIb)
T2 construct: extracellular domain; also called FcgRIIIa; 3a; not shown: His tag at the C terminus

[2] = target: T2, FcγRIIIa extracellular domain with …; test: SPR (Biacore), FcγR as analyte over captured antibody; GpH7-A5/GpH7-B3/GpL16-k0 = 100
[3] = target: T1, FcγRIIb extracellular domain with …; test: as above
FcγRIa = target: T3, FcγRIa (human, UniProt P12314 16-292); test: SPR (Biacore), relative binding; control HoCon Ab GpH7-B3/GpL16-k0
T3 construct: extracellular domain; also called FcgRI; FcgRIa; not shown: His tag attached to the C terminus
T3 sequence (P12314 16-292): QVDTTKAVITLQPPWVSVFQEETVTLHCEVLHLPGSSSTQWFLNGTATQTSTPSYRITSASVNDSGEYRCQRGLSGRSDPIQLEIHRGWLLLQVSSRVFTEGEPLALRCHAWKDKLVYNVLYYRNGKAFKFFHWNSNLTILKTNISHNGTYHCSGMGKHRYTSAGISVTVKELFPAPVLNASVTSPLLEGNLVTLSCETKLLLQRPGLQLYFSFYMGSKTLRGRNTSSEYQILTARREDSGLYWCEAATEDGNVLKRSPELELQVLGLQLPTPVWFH

T2 sequence (P08637 17-208): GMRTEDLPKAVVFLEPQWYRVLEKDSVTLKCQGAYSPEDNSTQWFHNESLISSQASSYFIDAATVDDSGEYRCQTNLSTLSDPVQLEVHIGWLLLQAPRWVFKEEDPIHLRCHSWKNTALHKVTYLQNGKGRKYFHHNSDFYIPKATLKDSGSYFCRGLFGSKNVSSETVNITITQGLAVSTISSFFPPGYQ

| Binder | He_3a/2b (IIIa/IIb) [1] [ratio] | He/Con_3a [2] | He/Con_2b [3] | Ho/Con_1a (FcγRIa) |
| --- | --- | --- | --- | --- |
| GpH7-A5/GpH7-B3 variant S298_05P/GpL16-k0 (antibody, human IgG1, kappa, Heterodimerized IgG1 antibody; alteration in the GpH7-B3 chain only; also called He Ab) heavy 1: not shown heavy 2: not shown light: DIVMTQSPLSLPVTPGEPASISCQASESLVHSNRNTYLHWYLQKPGQSPQLLIYKVSNRFSGVPDRFSGSGSGTDFTLKISRVEAEDVGVYYCSQNTHVPPTFGQGTKVEIERTVAAPSVFIFPPSDEQLKSGTASVVCLLNNFYPREAKVQWKVDNALQSGNSQESVTEQDSKDSTYSLSSTLTLSKADYEKHKVYACEVTHQGLSSPVTKSFNRGEC | 0.69 | 8.2 % of control | 11.9 % of control | – |
| GpH7-B3 variant K334_01G/GpL16-k0 (antibody, human IgG1, kappa, Alteration in both H chains; also called Ho Ab K334_01G) heavy: not shown light: DIVMTQSPLSLPVTPGEPASISCQASESLVHSNRNTYLHWYLQKPGQSPQLLIYKVSNRFSGVPDRFSGSGSGTDFTLKISRVEAEDVGVYYCSQNTHVPPTFGQGTKVEIERTVAAPSVFIFPPSDEQLKSGTASVVCLLNNFYPREAKVQWKVDNALQSGNSQESVTEQDSKDSTYSLSSTLTLSKADYEKHKVYACEVTHQGLSSPVTKSFNRGEC | – | – | – | 106 % of control (=100) |
| GpH7-A5/GpH7-B3 variant Y296_13S/GpL16-k0 (antibody, human IgG1, kappa, Heterodimerized IgG1 antibody; alteration in the GpH7-B3 chain only; also called He Ab) heavy 1: not shown heavy 2: not shown light: DIVMTQSPLSLPVTPGEPASISCQASESLVHSNRNTYLHWYLQKPGQSPQLLIYKVSNRFSGVPDRFSGSGSGTDFTLKISRVEAEDVGVYYCSQNTHVPPTFGQGTKVEIERTVAAPSVFIFPPSDEQLKSGTASVVCLLNNFYPREAKVQWKVDNALQSGNSQESVTEQDSKDSTYSLSSTLTLSKADYEKHKVYACEVTHQGLSSPVTKSFNRGEC | 0.72 | 61.8 % of control | 86.3 % of control | – |
| GpH7-A5/GpH7-B3 variant Y300_10E/GpL16-k0 (antibody, human IgG1, kappa, Heterodimerized IgG1 antibody; alteration in the GpH7-B3 chain only; also called He Ab) heavy 1: not shown heavy 2: not shown light: DIVMTQSPLSLPVTPGEPASISCQASESLVHSNRNTYLHWYLQKPGQSPQLLIYKVSNRFSGVPDRFSGSGSGTDFTLKISRVEAEDVGVYYCSQNTHVPPTFGQGTKVEIERTVAAPSVFIFPPSDEQLKSGTASVVCLLNNFYPREAKVQWKVDNALQSGNSQESVTEQDSKDSTYSLSSTLTLSKADYEKHKVYACEVTHQGLSSPVTKSFNRGEC | 0.78 | 104 % of control | 134 % of control | – |
| GpH7-A5/GpH7-B3 variant S324_05P/GpL16-k0 (antibody, human IgG1, kappa, Heterodimerized IgG1 antibody; alteration in the GpH7-B3 chain only; also called He Ab) heavy 1: not shown heavy 2: not shown light: DIVMTQSPLSLPVTPGEPASISCQASESLVHSNRNTYLHWYLQKPGQSPQLLIYKVSNRFSGVPDRFSGSGSGTDFTLKISRVEAEDVGVYYCSQNTHVPPTFGQGTKVEIERTVAAPSVFIFPPSDEQLKSGTASVVCLLNNFYPREAKVQWKVDNALQSGNSQESVTEQDSKDSTYSLSSTLTLSKADYEKHKVYACEVTHQGLSSPVTKSFNRGEC | 0.69 | 65.5 % of control | 94.7 % of control | – |
| GpH7-A5/GpH7-B3 variant Y296_01G/GpL16-k0 (antibody, human IgG1, kappa, Heterodimerized IgG1 antibody; alteration in the GpH7-B3 chain only; also called He Ab) heavy 1: not shown heavy 2: not shown light: DIVMTQSPLSLPVTPGEPASISCQASESLVHSNRNTYLHWYLQKPGQSPQLLIYKVSNRFSGVPDRFSGSGSGTDFTLKISRVEAEDVGVYYCSQNTHVPPTFGQGTKVEIERTVAAPSVFIFPPSDEQLKSGTASVVCLLNNFYPREAKVQWKVDNALQSGNSQESVTEQDSKDSTYSLSSTLTLSKADYEKHKVYACEVTHQGLSSPVTKSFNRGEC | 0.69 | 54.5 % of control | 79.3 % of control | – |
| GpH7-A5/GpH7-B3 variant Y296_14T/GpL16-k0 (antibody, human IgG1, kappa, Heterodimerized IgG1 antibody; alteration in the GpH7-B3 chain only; also called He Ab) heavy 1: not shown heavy 2: not shown light: DIVMTQSPLSLPVTPGEPASISCQASESLVHSNRNTYLHWYLQKPGQSPQLLIYKVSNRFSGVPDRFSGSGSGTDFTLKISRVEAEDVGVYYCSQNTHVPPTFGQGTKVEIERTVAAPSVFIFPPSDEQLKSGTASVVCLLNNFYPREAKVQWKVDNALQSGNSQESVTEQDSKDSTYSLSSTLTLSKADYEKHKVYACEVTHQGLSSPVTKSFNRGEC | 0.73 | 64.5 % of control | 88.2 % of control | – |
| GpH7-A5/GpH7-B3 variant S298_08L/GpL16-k0 (antibody, human IgG1, kappa, Heterodimerized IgG1 antibody; alteration in the GpH7-B3 chain only; also called He Ab) heavy 1: not shown heavy 2: not shown light: DIVMTQSPLSLPVTPGEPASISCQASESLVHSNRNTYLHWYLQKPGQSPQLLIYKVSNRFSGVPDRFSGSGSGTDFTLKISRVEAEDVGVYYCSQNTHVPPTFGQGTKVEIERTVAAPSVFIFPPSDEQLKSGTASVVCLLNNFYPREAKVQWKVDNALQSGNSQESVTEQDSKDSTYSLSSTLTLSKADYEKHKVYACEVTHQGLSSPVTKSFNRGEC | 0.68 | 73.5 % of control | 108 % of control | – |
| GpH7-A5/GpH7-B3 variant Y296_18N/GpL16-k0 (antibody, human IgG1, kappa, Heterodimerized IgG1 antibody; alteration in the GpH7-B3 chain only; also called He Ab) heavy 1: not shown heavy 2: not shown light: DIVMTQSPLSLPVTPGEPASISCQASESLVHSNRNTYLHWYLQKPGQSPQLLIYKVSNRFSGVPDRFSGSGSGTDFTLKISRVEAEDVGVYYCSQNTHVPPTFGQGTKVEIERTVAAPSVFIFPPSDEQLKSGTASVVCLLNNFYPREAKVQWKVDNALQSGNSQESVTEQDSKDSTYSLSSTLTLSKADYEKHKVYACEVTHQGLSSPVTKSFNRGEC | 0.79 | 72.1 % of control | 91.5 % of control | – |
| GpH7-A5/GpH7-B3 variant Y296_11K/GpL16-k0 (antibody, human IgG1, kappa, Heterodimerized IgG1 antibody; alteration in the GpH7-B3 chain only; also called He Ab) heavy 1: not shown heavy 2: not shown light: DIVMTQSPLSLPVTPGEPASISCQASESLVHSNRNTYLHWYLQKPGQSPQLLIYKVSNRFSGVPDRFSGSGSGTDFTLKISRVEAEDVGVYYCSQNTHVPPTFGQGTKVEIERTVAAPSVFIFPPSDEQLKSGTASVVCLLNNFYPREAKVQWKVDNALQSGNSQESVTEQDSKDSTYSLSSTLTLSKADYEKHKVYACEVTHQGLSSPVTKSFNRGEC | 0.78 | 56.7 % of control | 72.8 % of control | – |
| GpH7-A5/GpH7-B3 variant Y296_16H/GpL16-k0 (antibody, human IgG1, kappa, Heterodimerized IgG1 antibody; alteration in the GpH7-B3 chain only; also called He Ab) heavy 1: not shown heavy 2: not shown light: DIVMTQSPLSLPVTPGEPASISCQASESLVHSNRNTYLHWYLQKPGQSPQLLIYKVSNRFSGVPDRFSGSGSGTDFTLKISRVEAEDVGVYYCSQNTHVPPTFGQGTKVEIERTVAAPSVFIFPPSDEQLKSGTASVVCLLNNFYPREAKVQWKVDNALQSGNSQESVTEQDSKDSTYSLSSTLTLSKADYEKHKVYACEVTHQGLSSPVTKSFNRGEC | 0.8 | 73.4 % of control | 92.2 % of control | – |

More lines, now with the values ahead:

| He_3a/2b (IIIa/IIb) [1] [ratio] | He/Con_3a [2] | He/Con_2b [3] | Ho/Con_1a (FcγRIa) | Binder |
| --- | --- | --- | --- | --- |
| – | – | – | 103 % of control (=100) | GpH7-B3 variant K326_03V/GpL16-k0 (antibody, human IgG1, kappa, Alteration in both H chains; also called Ho Ab K326_03V) heavy: not shown light: DIVMTQSPLSLPVTPGEPASISCQASESLVHSNRNTYLHWYLQKPGQSPQLLIYKVSNRFSGVPDRFSGSGSGTDFTLKISRVEAEDVGVYYCSQNTHVPPTFGQGTKVEIERTVAAPSVFIFPPSDEQLKSGTASVVCLLNNFYPREAKVQWKVDNALQSGNSQESVTEQDSKDSTYSLSSTLTLSKADYEKHKVYACEVTHQGLSSPVTKSFNRGEC |
| – | – | – | 104 % of control (=100) | GpH7-B3 variant K326_06M/GpL16-k0 (antibody, human IgG1, kappa, Alteration in both H chains; also called Ho Ab K326_06M) heavy: not shown light: DIVMTQSPLSLPVTPGEPASISCQASESLVHSNRNTYLHWYLQKPGQSPQLLIYKVSNRFSGVPDRFSGSGSGTDFTLKISRVEAEDVGVYYCSQNTHVPPTFGQGTKVEIERTVAAPSVFIFPPSDEQLKSGTASVVCLLNNFYPREAKVQWKVDNALQSGNSQESVTEQDSKDSTYSLSSTLTLSKADYEKHKVYACEVTHQGLSSPVTKSFNRGEC |
| – | – | – | 102 % of control (=100) | GpH7-B3 variant K326_07I/GpL16-k0 (antibody, human IgG1, kappa, Alteration in both H chains; also called Ho Ab K326_07I) heavy: not shown light: DIVMTQSPLSLPVTPGEPASISCQASESLVHSNRNTYLHWYLQKPGQSPQLLIYKVSNRFSGVPDRFSGSGSGTDFTLKISRVEAEDVGVYYCSQNTHVPPTFGQGTKVEIERTVAAPSVFIFPPSDEQLKSGTASVVCLLNNFYPREAKVQWKVDNALQSGNSQESVTEQDSKDSTYSLSSTLTLSKADYEKHKVYACEVTHQGLSSPVTKSFNRGEC |
| – | – | – | 110 % of control (=100) | GpH7-B3 variant I336_15Y/GpL16-k0 (antibody, human IgG1, kappa, Alteration in both H chains; also called Ho Ab I336_15Y) heavy: not shown light: DIVMTQSPLSLPVTPGEPASISCQASESLVHSNRNTYLHWYLQKPGQSPQLLIYKVSNRFSGVPDRFSGSGSGTDFTLKISRVEAEDVGVYYCSQNTHVPPTFGQGTKVEIERTVAAPSVFIFPPSDEQLKSGTASVVCLLNNFYPREAKVQWKVDNALQSGNSQESVTEQDSKDSTYSLSSTLTLSKADYEKHKVYACEVTHQGLSSPVTKSFNRGEC |
| – | – | – | 101 % of control (=100) | GpH7-B3 variant K326_08L/GpL16-k0 (antibody, human IgG1, kappa, Alteration in both H chains; also called Ho Ab K326_08L) heavy: not shown light: DIVMTQSPLSLPVTPGEPASISCQASESLVHSNRNTYLHWYLQKPGQSPQLLIYKVSNRFSGVPDRFSGSGSGTDFTLKISRVEAEDVGVYYCSQNTHVPPTFGQGTKVEIERTVAAPSVFIFPPSDEQLKSGTASVVCLLNNFYPREAKVQWKVDNALQSGNSQESVTEQDSKDSTYSLSSTLTLSKADYEKHKVYACEVTHQGLSSPVTKSFNRGEC |
| – | – | – | 114 % of control (=100) | GpH7-B3 variant I336_16H/GpL16-k0 (antibody, human IgG1, kappa, Alteration in both H chains; also called Ho Ab I336_16H) heavy: not shown light: DIVMTQSPLSLPVTPGEPASISCQASESLVHSNRNTYLHWYLQKPGQSPQLLIYKVSNRFSGVPDRFSGSGSGTDFTLKISRVEAEDVGVYYCSQNTHVPPTFGQGTKVEIERTVAAPSVFIFPPSDEQLKSGTASVVCLLNNFYPREAKVQWKVDNALQSGNSQESVTEQDSKDSTYSLSSTLTLSKADYEKHKVYACEVTHQGLSSPVTKSFNRGEC |
| – | – | – | 102 % of control (=100) | GpH7-B3 variant K326_04F/GpL16-k0 (antibody, human IgG1, kappa, Alteration in both H chains; also called Ho Ab K326_04F) heavy: not shown light: DIVMTQSPLSLPVTPGEPASISCQASESLVHSNRNTYLHWYLQKPGQSPQLLIYKVSNRFSGVPDRFSGSGSGTDFTLKISRVEAEDVGVYYCSQNTHVPPTFGQGTKVEIERTVAAPSVFIFPPSDEQLKSGTASVVCLLNNFYPREAKVQWKVDNALQSGNSQESVTEQDSKDSTYSLSSTLTLSKADYEKHKVYACEVTHQGLSSPVTKSFNRGEC |
